Source: patent US7091311
*1 amine or outer side, *2 acyl side, *3 side chain or, on linkers, in order; H or OH if unused. Bridges are numbered along the chain shown (N, C = ends). Where no end group is shown, it is not given here. [ ]: non-standard residue; d: D form. NMeSer(Bzl) = N-methyl-O-benzyl-serine, CN([C@@H](COCc1ccccc1)C(=O)[*:2])[*:1]; Phe(4-NO2) = N[C@@H](Cc1ccc([N+](=O)[O-])cc1)C(=O)O; Phe(3,4-Cl2) = N[C@@H](Cc1ccc(Cl)c(Cl)c1)C(=O)O; DiPhAla = diphenylalanine (source's own name); Ser(Bzl) = O=C([C@H](COCc1ccccc1)N[*:1])[*:2]; Phe(4-Cl) = N[C@@H](Cc1ccc(Cl)cc1)C(=O)O; 1Nal = N[C@@H](Cc1cccc2ccccc12)C(=O)O; 2Nal = N[C@@H](Cc1ccc2ccccc2c1)C(=O)O; hPhe = N[C@@H](CCc1ccccc1)C(=O)O; 2Thi = N[C@@H](Cc1cccs1)C(=O)O; Cha = N[C@@H](CC1CCCCC1)C(=O)O; Phg = N[C@H](C(=O)O)c1ccccc1; Tle = CC(C)(C)[C@H](N)C(=O)O; NMeV = CN[C@H](C(=O)O)C(C)C; NMeA = CN[C@@H](C)C(=O)O; Nle = CCCC[C@H](N)C(=O)O; Nva = CCC[C@H](N)C(=O)O; Abu = CC[C@H](N)C(=O)O; Aib = CC(C)(N)C(=O)O; Sar = CNCC(=O)O

Target: soluble TPO-R (UniProt P40238)
Assay: competition ELISA vs MBP-TPO156

soluble TPO-R, sequence (P40238 26-491): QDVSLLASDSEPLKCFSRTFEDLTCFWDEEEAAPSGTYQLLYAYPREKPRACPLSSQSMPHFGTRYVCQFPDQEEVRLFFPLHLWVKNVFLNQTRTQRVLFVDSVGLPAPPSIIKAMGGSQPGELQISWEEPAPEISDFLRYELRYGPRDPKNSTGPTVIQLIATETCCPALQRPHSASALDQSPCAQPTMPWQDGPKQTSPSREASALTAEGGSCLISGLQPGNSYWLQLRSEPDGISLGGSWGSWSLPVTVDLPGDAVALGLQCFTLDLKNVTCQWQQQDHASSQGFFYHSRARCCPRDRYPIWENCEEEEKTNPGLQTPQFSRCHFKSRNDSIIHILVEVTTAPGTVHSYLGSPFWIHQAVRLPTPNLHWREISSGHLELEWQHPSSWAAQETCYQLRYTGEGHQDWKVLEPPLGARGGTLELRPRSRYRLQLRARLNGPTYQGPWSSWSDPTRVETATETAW

Binder | IC50 [nM]
CADGPTLREWIS[Pyridylala]C (not fully specified (bridges); also: cyclized, type not given here) [SEQ ID NO:12 cyclized, F - (Pyridylala)] | < 500
CADGPTLREWIS[NMeA]C (disulfide 1-14 (inferred); not fully specified) [SEQ ID NO:12 cyclized, F - (N-Me-Ala)] | 200000
CADGPTLREWIS[2Thi]C (disulfide 1-14 (inferred); not fully specified) [SEQ ID NO:12 cyclized, F - Thi] | < 500
CADGPTLREWIS[Phg]C (disulfide 1-14 (inferred); not fully specified) [SEQ ID NO:12 cyclized, F - (Phenylgly)] | < 500
GPTLREWISFC (not fully specified; also: further groups not given here) [[drawing CHEM-US-00038] (SEQ ID NO:190)(SEQ ID NO:190)] | < 500
CADGPTLREWI[Nva]FC (disulfide 1-14 (inferred); not fully specified) [SEQ ID NO:12 cyclized, S - Nva] | < 500
CADGPTLREWI[NMeV]FC (disulfide 1-14 (inferred); not fully specified) [SEQ ID NO:12 cyclized, S - (N-Me-Val)] | 200000
CADGPTLREWI[Tle]FC (disulfide 1-14 (inferred); not fully specified) [SEQ ID NO:12 cyclized, S - (t-Bu-Gly)] | < 500
GPTLREWISFC (not fully specified; also: further groups not given here) [[drawing CHEM-US-00039] (SEQ ID NO:190)(SEQ ID NO:190)] | < 200000
PTLREWISFC (not fully specified; also: further groups not given here) [[drawing CHEM-US-00041] (SEQ ID NO:191)(SEQ ID NO:191)] | 200000
CADGPTLREWIS[2Nal]C (disulfide 1-14 (inferred); not fully specified) [SEQ ID NO:12 cyclized, F - (2-Nal)] | < 500
CADGPTLREWIS[Phe(4-Cl)]C (disulfide 1-14 (inferred); not fully specified) [SEQ ID NO:12 cyclized, F - (p-Cl-Phe)] | < 500
CADGPTLREWIS[Cha]C (disulfide 1-14 (inferred); not fully specified) [SEQ ID NO:12 cyclized, F - CHA] | < 500
CADGPTLREWI[NMeSer(Bzl)]FC (disulfide 1-14 (inferred); not fully specified) [SEQ ID NO:12 cyclized, S - [N-Me-Ser(Bzl)]] | < 200000
ADGPTLREWISFC (not fully specified; also: further groups not given here) [[drawing CHEM-US-00013] (SEQ ID NO:173)] | < 500
CADGPTLREWIS[Phe(3,4-Cl2)]C (disulfide 1-14 (inferred); not fully specified) [SEQ ID NO:12 cyclized, F - (3,4-di-Cl-Phe)] | < 500
CADGPTLREWIS[1Nal]C (disulfide 1-14 (inferred); not fully specified) [SEQ ID NO:12 cyclized, F - (1-Nal)] | < 500

Binder | IC50 [nM]
CADGPTLREWI[Nle]FC (disulfide 1-14 (inferred); not fully specified) [SEQ ID NO:12 cyclized, S - (Nor-Leu)] | < 500
CADGPTLREWIS[Phe(4-NO2)]C (disulfide 1-14 (inferred); not fully specified) [SEQ ID NO:12 cyclized, F - (p-Nitrophe)] | < 500
ADGPTLREWISFC (also: further groups not given here) [[drawing CHEM-US-00027] / [drawing CHEM-US-00028] (SEQ ID NO:173)] | < 500
ADGPTLREWISFC (also: further groups not given here) [[drawing CHEM-US-00036] (SEQ ID NO:173)(SEQ ID NO:173)] | < 500
CADGPTLREWI[NMeA]FC (disulfide 1-14 (inferred); not fully specified) [SEQ ID NO:12 cyclized, S - (N-Me-Ala)] | < 200000
ADGPTLREWISFC (not fully specified; also: further groups not given here) [[drawing CHEM-US-00006] (SEQ ID NO:173)] | 200000
PTLREWISFC (not fully specified; also: further groups not given here) [[drawing CHEM-US-00040] (SEQ ID NO:191)(SEQ ID NO:191)] | < 500
CADGPTLREWI[Aib]FC (disulfide 1-14 (inferred); not fully specified) [SEQ ID NO:12 cyclized, S - Aib] | < 500
CADGPTLREWIS[hPhe]C (disulfide 1-14 (inferred); not fully specified) [SEQ ID NO:12 cyclized, F - Homo-Phe] | < 500
CADGPTLREWI[Sar]FC (disulfide 1-14 (inferred); not fully specified) [SEQ ID NO:12 cyclized, S - Sar] | < 500
CADGPTLREWIS[Ser(Bzl)]C (disulfide 1-14 (inferred); not fully specified) [SEQ ID NO:12 cyclized, F - (Ser(Bzl))] | < 500
ADGPTLREWISFC (also: further groups not given here) [[drawing CHEM-US-00035] (SEQ ID NO:173)(SEQ ID NO:173)] | < 500
CADGPTLREWI[Abu]FC (disulfide 1-14 (inferred); not fully specified) [SEQ ID NO:12 cyclized, S - Abu] | < 500
TLREWISFC (also: further groups not given here) [[drawing CHEM-US-00043] (SEQ ID NO:192)(SEQ ID NO:192)] | 200000
CADGPTLREWIS[DiPhAla]C (disulfide 1-14 (inferred); not fully specified) [SEQ ID NO:12 cyclized, F - (DiPh - Ala)] | < 500
TLREWISFC (also: further groups not given here) [[drawing CHEM-US-00042] (SEQ ID NO:192)(SEQ ID NO:192)] | 200000
